Experimental data as given in publication PMC8685725 (Proceedings of the National Academy of Sciences of the …, 2021).

Tests used:
[1] = target: T1, GFP-linked full-length hnRNPH1 (amino acids 2 through 449) (human (cDNA library from HEK-293T cells), UniProt P31943 2-449); assay: hydrogel-binding assay
T1 sequence: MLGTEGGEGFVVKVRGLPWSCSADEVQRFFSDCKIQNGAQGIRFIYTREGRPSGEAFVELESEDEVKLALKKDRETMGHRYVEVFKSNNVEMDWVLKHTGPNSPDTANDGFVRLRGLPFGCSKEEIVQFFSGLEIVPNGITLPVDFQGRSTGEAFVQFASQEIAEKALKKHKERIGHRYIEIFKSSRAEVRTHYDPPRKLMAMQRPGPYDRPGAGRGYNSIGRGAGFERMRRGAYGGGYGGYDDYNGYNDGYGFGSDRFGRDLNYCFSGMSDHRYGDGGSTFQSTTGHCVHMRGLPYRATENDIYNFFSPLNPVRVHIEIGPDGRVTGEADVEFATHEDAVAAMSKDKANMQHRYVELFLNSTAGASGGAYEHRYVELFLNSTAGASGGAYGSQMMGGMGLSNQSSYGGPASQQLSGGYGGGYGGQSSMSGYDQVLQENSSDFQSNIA

[2] = target: T2, GFP:hnRNPH1-LC1, His tag cleaved, as liquid-like droplets (human (cDNA library from HEK-293T cells), UniProt P31943 192-280); assay: LLD incorporation assay
T2 sequence: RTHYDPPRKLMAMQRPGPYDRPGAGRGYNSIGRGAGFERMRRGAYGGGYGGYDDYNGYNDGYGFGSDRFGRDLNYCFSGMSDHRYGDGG

Binder	binding result [1]	binding result [2]
mCherry-linked C-terminal half of hnRNPH1 (amino acids 192 through 449), as hydrogel droplets or polymers (domain or fragment) RTHYDPPRKLMAMQRPGPYDRPGAGRGYNSIGRGAGFERMRRGAYGGGYGGYDDYNGYNDGYGFGSDRFGRDLNYCFSGMSDHRYGDGGSTFQSTTGHCVHMRGLPYRATENDIYNFFSPLNPVRVHIEIGPDGRVTGEADVEFATHEDAVAAMSKDKANMQHRYVELFLNSTAGASGGAYEHRYVELFLNSTAGASGGAYGSQMMGGMGLSNQSSYGGPASQQLSGGYGGGYGGQSSMSGYDQVLQENSSDFQSNIA	binds	–
mCherry-linked LC1 domain of hnRNPH1 (amino acids 192 through 280), His tag cleaved (domain or fragment) RTHYDPPRKLMAMQRPGPYDRPGAGRGYNSIGRGAGFERMRRGAYGGGYGGYDDYNGYNDGYGFGSDRFGRDLNYCFSGMSDHRYGDGG	–	binds
